Sequences and labels used below:
B1: C5A (XPA23) VL Q27D (antibody, V domains shown)
VH: EVQLLESGGGLVQPGGSLRLSCAASGFTFSKYFMFWVRQAPGKGLEWVSVISPSGGMTRYADSVKGRFTISRDNSKNTLYLQMNSLRAEDTAVYYCARVGYGGNSDYWGQGTLVTVSS
VL: DIQMTQSPSSVSASVGDRLTIICRASDDINRWLAWYQQTPGNAPKLLIHSATSLQSGVPSRFSGSGSGTDFTLTINSLQPEDFATYYCQQADSFPLTFGGGTKVEIK
B2: C5A (XPA23) VL D28R (antibody, V domains shown)
VH: EVQLLESGGGLVQPGGSLRLSCAASGFTFSKYFMFWVRQAPGKGLEWVSVISPSGGMTRYADSVKGRFTISRDNSKNTLYLQMNSLRAEDTAVYYCARVGYGGNSDYWGQGTLVTVSS
VL: DIQMTQSPSSVSASVGDRLTIICRASQRINRWLAWYQQTPGNAPKLLIHSATSLQSGVPSRFSGSGSGTDFTLTINSLQPEDFATYYCQQADSFPLTFGGGTKVEIK
B3: C5A (XPA23) VL N30H (antibody, V domains shown)
VH: EVQLLESGGGLVQPGGSLRLSCAASGFTFSKYFMFWVRQAPGKGLEWVSVISPSGGMTRYADSVKGRFTISRDNSKNTLYLQMNSLRAEDTAVYYCARVGYGGNSDYWGQGTLVTVSS
VL: DIQMTQSPSSVSASVGDRLTIICRASQDIHRWLAWYQQTPGNAPKLLIHSATSLQSGVPSRFSGSGSGTDFTLTINSLQPEDFATYYCQQADSFPLTFGGGTKVEIK
B4: C5A (XPA23) VL N30E (antibody, V domains shown)
VH: EVQLLESGGGLVQPGGSLRLSCAASGFTFSKYFMFWVRQAPGKGLEWVSVISPSGGMTRYADSVKGRFTISRDNSKNTLYLQMNSLRAEDTAVYYCARVGYGGNSDYWGQGTLVTVSS
VL: DIQMTQSPSSVSASVGDRLTIICRASQDIERWLAWYQQTPGNAPKLLIHSATSLQSGVPSRFSGSGSGTDFTLTINSLQPEDFATYYCQQADSFPLTFGGGTKVEIK
B5: C5A (XPA23) VL D28S (antibody, V domains shown)
VH: EVQLLESGGGLVQPGGSLRLSCAASGFTFSKYFMFWVRQAPGKGLEWVSVISPSGGMTRYADSVKGRFTISRDNSKNTLYLQMNSLRAEDTAVYYCARVGYGGNSDYWGQGTLVTVSS
VL: DIQMTQSPSSVSASVGDRLTIICRASQSINRWLAWYQQTPGNAPKLLIHSATSLQSGVPSRFSGSGSGTDFTLTINSLQPEDFATYYCQQADSFPLTFGGGTKVEIK
B6: C5A (XPA23) VL N30T (antibody, V domains shown)
VH: EVQLLESGGGLVQPGGSLRLSCAASGFTFSKYFMFWVRQAPGKGLEWVSVISPSGGMTRYADSVKGRFTISRDNSKNTLYLQMNSLRAEDTAVYYCARVGYGGNSDYWGQGTLVTVSS
VL: DIQMTQSPSSVSASVGDRLTIICRASQDITRWLAWYQQTPGNAPKLLIHSATSLQSGVPSRFSGSGSGTDFTLTINSLQPEDFATYYCQQADSFPLTFGGGTKVEIK
B7: C5A (XPA23) VL Q27E (antibody, V domains shown)
VH: EVQLLESGGGLVQPGGSLRLSCAASGFTFSKYFMFWVRQAPGKGLEWVSVISPSGGMTRYADSVKGRFTISRDNSKNTLYLQMNSLRAEDTAVYYCARVGYGGNSDYWGQGTLVTVSS
VL: DIQMTQSPSSVSASVGDRLTIICRASEDINRWLAWYQQTPGNAPKLLIHSATSLQSGVPSRFSGSGSGTDFTLTINSLQPEDFATYYCQQADSFPLTFGGGTKVEIK
B8: C5A (XPA23) VL N30S (antibody, V domains shown)
VH: EVQLLESGGGLVQPGGSLRLSCAASGFTFSKYFMFWVRQAPGKGLEWVSVISPSGGMTRYADSVKGRFTISRDNSKNTLYLQMNSLRAEDTAVYYCARVGYGGNSDYWGQGTLVTVSS
VL: DIQMTQSPSSVSASVGDRLTIICRASQDISRWLAWYQQTPGNAPKLLIHSATSLQSGVPSRFSGSGSGTDFTLTINSLQPEDFATYYCQQADSFPLTFGGGTKVEIK
B9: C5A (XPA23) VL D28N (antibody, V domains shown)
VH: EVQLLESGGGLVQPGGSLRLSCAASGFTFSKYFMFWVRQAPGKGLEWVSVISPSGGMTRYADSVKGRFTISRDNSKNTLYLQMNSLRAEDTAVYYCARVGYGGNSDYWGQGTLVTVSS
VL: DIQMTQSPSSVSASVGDRLTIICRASQNINRWLAWYQQTPGNAPKLLIHSATSLQSGVPSRFSGSGSGTDFTLTINSLQPEDFATYYCQQADSFPLTFGGGTKVEIK
B10: C5A (XPA23) VL N30R (antibody, V domains shown)
VH: EVQLLESGGGLVQPGGSLRLSCAASGFTFSKYFMFWVRQAPGKGLEWVSVISPSGGMTRYADSVKGRFTISRDNSKNTLYLQMNSLRAEDTAVYYCARVGYGGNSDYWGQGTLVTVSS
VL: DIQMTQSPSSVSASVGDRLTIICRASQDIRRWLAWYQQTPGNAPKLLIHSATSLQSGVPSRFSGSGSGTDFTLTINSLQPEDFATYYCQQADSFPLTFGGGTKVEIK
B11: C5A (XPA23) VL D28K (antibody, V domains shown)
VH: EVQLLESGGGLVQPGGSLRLSCAASGFTFSKYFMFWVRQAPGKGLEWVSVISPSGGMTRYADSVKGRFTISRDNSKNTLYLQMNSLRAEDTAVYYCARVGYGGNSDYWGQGTLVTVSS
VL: DIQMTQSPSSVSASVGDRLTIICRASQKINRWLAWYQQTPGNAPKLLIHSATSLQSGVPSRFSGSGSGTDFTLTINSLQPEDFATYYCQQADSFPLTFGGGTKVEIK
B12: C5A (XPA23) VL N30K (antibody, V domains shown)
VH: EVQLLESGGGLVQPGGSLRLSCAASGFTFSKYFMFWVRQAPGKGLEWVSVISPSGGMTRYADSVKGRFTISRDNSKNTLYLQMNSLRAEDTAVYYCARVGYGGNSDYWGQGTLVTVSS
VL: DIQMTQSPSSVSASVGDRLTIICRASQDIKRWLAWYQQTPGNAPKLLIHSATSLQSGVPSRFSGSGSGTDFTLTINSLQPEDFATYYCQQADSFPLTFGGGTKVEIK
B13: C5A (XPA23) VL D28T (antibody, V domains shown)
VH: EVQLLESGGGLVQPGGSLRLSCAASGFTFSKYFMFWVRQAPGKGLEWVSVISPSGGMTRYADSVKGRFTISRDNSKNTLYLQMNSLRAEDTAVYYCARVGYGGNSDYWGQGTLVTVSS
VL: DIQMTQSPSSVSASVGDRLTIICRASQTINRWLAWYQQTPGNAPKLLIHSATSLQSGVPSRFSGSGSGTDFTLTINSLQPEDFATYYCQQADSFPLTFGGGTKVEIK
B14: C5A (XPA23) VL D28E (antibody, V domains shown)
VH: EVQLLESGGGLVQPGGSLRLSCAASGFTFSKYFMFWVRQAPGKGLEWVSVISPSGGMTRYADSVKGRFTISRDNSKNTLYLQMNSLRAEDTAVYYCARVGYGGNSDYWGQGTLVTVSS
VL: DIQMTQSPSSVSASVGDRLTIICRASQEINRWLAWYQQTPGNAPKLLIHSATSLQSGVPSRFSGSGSGTDFTLTINSLQPEDFATYYCQQADSFPLTFGGGTKVEIK
B15: C5A (XPA23) VL D28H (antibody, V domains shown)
VH: EVQLLESGGGLVQPGGSLRLSCAASGFTFSKYFMFWVRQAPGKGLEWVSVISPSGGMTRYADSVKGRFTISRDNSKNTLYLQMNSLRAEDTAVYYCARVGYGGNSDYWGQGTLVTVSS
VL: DIQMTQSPSSVSASVGDRLTIICRASQHINRWLAWYQQTPGNAPKLLIHSATSLQSGVPSRFSGSGSGTDFTLTINSLQPEDFATYYCQQADSFPLTFGGGTKVEIK
B16: C5A (XPA23) VL Q27H (antibody, V domains shown)
VH: EVQLLESGGGLVQPGGSLRLSCAASGFTFSKYFMFWVRQAPGKGLEWVSVISPSGGMTRYADSVKGRFTISRDNSKNTLYLQMNSLRAEDTAVYYCARVGYGGNSDYWGQGTLVTVSS
VL: DIQMTQSPSSVSASVGDRLTIICRASHDINRWLAWYQQTPGNAPKLLIHSATSLQSGVPSRFSGSGSGTDFTLTINSLQPEDFATYYCQQADSFPLTFGGGTKVEIK
B17: C5A (XPA23) VL Q27T (antibody, V domains shown)
VH: EVQLLESGGGLVQPGGSLRLSCAASGFTFSKYFMFWVRQAPGKGLEWVSVISPSGGMTRYADSVKGRFTISRDNSKNTLYLQMNSLRAEDTAVYYCARVGYGGNSDYWGQGTLVTVSS
VL: DIQMTQSPSSVSASVGDRLTIICRASTDINRWLAWYQQTPGNAPKLLIHSATSLQSGVPSRFSGSGSGTDFTLTINSLQPEDFATYYCQQADSFPLTFGGGTKVEIK
B18: C5A (XPA23) VL D28Y (antibody, V domains shown)
VH: EVQLLESGGGLVQPGGSLRLSCAASGFTFSKYFMFWVRQAPGKGLEWVSVISPSGGMTRYADSVKGRFTISRDNSKNTLYLQMNSLRAEDTAVYYCARVGYGGNSDYWGQGTLVTVSS
VL: DIQMTQSPSSVSASVGDRLTIICRASQYINRWLAWYQQTPGNAPKLLIHSATSLQSGVPSRFSGSGSGTDFTLTINSLQPEDFATYYCQQADSFPLTFGGGTKVEIK
B19: C5A (XPA23) VL Q27S (antibody, V domains shown)
VH: EVQLLESGGGLVQPGGSLRLSCAASGFTFSKYFMFWVRQAPGKGLEWVSVISPSGGMTRYADSVKGRFTISRDNSKNTLYLQMNSLRAEDTAVYYCARVGYGGNSDYWGQGTLVTVSS
VL: DIQMTQSPSSVSASVGDRLTIICRASSDINRWLAWYQQTPGNAPKLLIHSATSLQSGVPSRFSGSGSGTDFTLTINSLQPEDFATYYCQQADSFPLTFGGGTKVEIK
B20: C5A (XPA23) VL N30D (antibody, V domains shown)
VH: EVQLLESGGGLVQPGGSLRLSCAASGFTFSKYFMFWVRQAPGKGLEWVSVISPSGGMTRYADSVKGRFTISRDNSKNTLYLQMNSLRAEDTAVYYCARVGYGGNSDYWGQGTLVTVSS
VL: DIQMTQSPSSVSASVGDRLTIICRASQDIDRWLAWYQQTPGNAPKLLIHSATSLQSGVPSRFSGSGSGTDFTLTINSLQPEDFATYYCQQADSFPLTFGGGTKVEIK
B21: C5A (XPA23) VL Q27R (antibody, V domains shown)
VH: EVQLLESGGGLVQPGGSLRLSCAASGFTFSKYFMFWVRQAPGKGLEWVSVISPSGGMTRYADSVKGRFTISRDNSKNTLYLQMNSLRAEDTAVYYCARVGYGGNSDYWGQGTLVTVSS
VL: DIQMTQSPSSVSASVGDRLTIICRASRDINRWLAWYQQTPGNAPKLLIHSATSLQSGVPSRFSGSGSGTDFTLTINSLQPEDFATYYCQQADSFPLTFGGGTKVEIK

The experiment addresses binding partner of C5A (XPA23). As to the kind of experiment: Biacore K-off.
Take B1: the fold difference in affinity vs original is 1.07 fold.
To B2 belongs 0.94 fold; to B3, 1 fold.
In the case of B4 it was 0.64 fold; in that of B5, 5.25 fold; in that of B6, 0.97 fold.
To B7 belongs 1.08 fold.
Take B8: the fold difference in affinity vs original was found to be 0.72 fold.
In the case of B9 it was 1 fold; in that of B10, 0.74 fold.
As to B11, the fold difference in affinity vs original was 0.82 fold.
To B12 belongs 0.61 fold; to B13, 1.19 fold.
In the case of B14 it was 0.74 fold; in that of B15, 1.23 fold; in that of B16, 1.09 fold.
To B17 belongs 0.64 fold; to B18, 1.45 fold.
For the molecule B19, the fold difference in affinity vs original worked out at 3.3 fold.
To B20 belongs 0.81 fold.
With B21, the fold difference in affinity vs original was determined as 0.89 fold.
